B1: ceTIR-1^TIR (residues 703-872) [C. elegans] / itself (parent)
chain: MLSKQIDVFISYRRSTGNQLASLIKVLLQLRGYRVFIDVDKLYAGKFDSSLLKNIQAAKHFILVLTPNSLDRLLNDDNCEDWVHKELKCAFEHQKNIIPIFDTAFEFPTKEDQIPNDIRMITKYNGVKWVHDYQDACMAKVVRFITGELNRTTPTTKEMPSISRKTTQQR

Variants of: B1
Assay: gel filtration (size exclusion chromatography)
Details: with itself

Variant | elution volume [mL]
chain 1 L27H | 17.2
